Measured values published in article PMC6286341, “The reduced activity of PP-1α under redox stress condition is a consequence of GSH-mediated transient disulfide formation” (Scientific Reports, 2018).

Biological target: the molecule itself
Test: disulfide-linked peptides by LC-MS/MS (cross-over-read search); non-treated bovine SOD1, filter-aided sample preparation, trypsin/chymotrypsin digest

B1: bovine superoxide dismutase 1 (SOD1) (enzyme)
chain: not shown
modifications: N-terminal acetylation (N-terminally acetylated Cys7 peptides)
notes: superoxide dismutase 1, bovine; 3 Cys residues Cys7, Cys56 and Cys145; also called bovine SOD1; source: bought: Sigma Aldrich S7571
Question: Does B1 bind?
Answer: binds
